According to patent US20110217334A1:

Biological target: serum IgE of birch pollen allergic individuals
Assay: ELISA inhibition, Bet v 1a immobilized, BM4 as inhibitor in serial dilutions

B1: BM4 (protein)
chain: GVFNYETETTSVIPAARLFKAFILDGDNLFPKVAPQAISSVENIEGNGGPGTIKKISFPEGFPFKYVKDRVDEVDHTNFKYNYSVIEGGPIGDTLEKISNEIKIVATPSGSTIKSISNKYHTKGDHEVKAEQVKASKEMGETLLRAVESYLLAHSDAYN
  fold reduced patients' IgE binding capacity compared to Bet v 1a: 100 to 1000 fold
